# Experimental data reported in article PMC5640651, “Interfering with the high-affinity interaction between wheat amylase trypsin inhibitor CM3 and toll-like receptor 4: in silico and biosensor-based studies” (Scientific Reports, 2017).
# What was measured:
# Conditions in all cases: both partners purified
# [1] = biological target: T1, human toll-like receptor 4, His-tagged (human, UniProt O00206 24-631); assay: SPR; IAsys plus evanescent wave/resonant mirror biosensor (the paper calls it surface plasmon resonance); TLR4-His covalently immobilised on carboxylate cuvette; 37 °C; PBS pH 7.4 with 140 mM NaCl; mono-exponential fits
# T1 construct: toll-like receptor 4, human; called the extracellular domain of TLR4 in the results; described as a 100 kDa protein with isoelectric point 5.88; Coupled covalently to the carboxylate cuvette by EDC/NHS 'via the N-terminus of the poly-His tail'; also called TLR4; TLR4-His; source: pEF-BOS TLR4 plasmid, transfected in HCT-116 cell line (author contributions)
# T1 sequence (O00206 24-631): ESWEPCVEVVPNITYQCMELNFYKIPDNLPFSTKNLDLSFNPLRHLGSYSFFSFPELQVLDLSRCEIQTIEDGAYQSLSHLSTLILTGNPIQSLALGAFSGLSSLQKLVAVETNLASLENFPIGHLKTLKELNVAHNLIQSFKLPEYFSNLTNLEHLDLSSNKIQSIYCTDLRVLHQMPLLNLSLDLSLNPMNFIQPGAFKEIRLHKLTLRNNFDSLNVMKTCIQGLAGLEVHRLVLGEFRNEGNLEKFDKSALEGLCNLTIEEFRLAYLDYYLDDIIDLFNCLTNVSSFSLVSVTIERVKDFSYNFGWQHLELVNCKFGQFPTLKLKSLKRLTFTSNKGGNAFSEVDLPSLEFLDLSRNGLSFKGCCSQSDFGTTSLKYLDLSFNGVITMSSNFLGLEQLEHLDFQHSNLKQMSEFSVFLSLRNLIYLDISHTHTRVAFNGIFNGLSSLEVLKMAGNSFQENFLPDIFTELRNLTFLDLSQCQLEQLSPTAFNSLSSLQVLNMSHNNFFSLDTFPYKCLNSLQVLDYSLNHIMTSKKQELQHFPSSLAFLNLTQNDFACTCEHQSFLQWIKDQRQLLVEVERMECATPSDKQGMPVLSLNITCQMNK
# [2] = biological target: T1, human toll-like receptor 4, His-tagged; assay: SPR; IAsys plus resonant mirror biosensor; TLR4-His immobilised; 37 °C; 20 mM PBS, 50 mM NaCl
# [3] = biological target: T1, human toll-like receptor 4, His-tagged; assay: SPR; IAsys plus resonant mirror biosensor; TLR4-His immobilised; 37 °C; 20 mM PBS, no NaCl
# [4] = biological target: T1, human toll-like receptor 4, His-tagged; assay: SPR; IAsys plus resonant mirror biosensor; TLR4-His immobilised; 37 °C; 20 mM PBS, 25 mM NaCl
# [5] = biological target: T1, human toll-like receptor 4, His-tagged; assay: SPR; IAsys plus evanescent wave/resonant mirror biosensor (the paper calls it surface plasmon resonance); TLR4-His covalently immobilised on carboxylate cuvette; 37 °C; PBS pH 7.4 with 140 mM NaCl; mono-exponential fits; remark: listed apart in the source
# [6] = biological target: T1, human toll-like receptor 4, His-tagged; assay: as above; remark: listed apart in the source
Kd [1],koff [1],kon [1],Kd [2],koff [2],kon [2],Kd [3],koff [3],kon [3],Kd [4],koff [4],kon [4],Kd [5],stoichiometry N [5],Kd [6],koff [6],kon [6],Binder
61 nM,0.0025 s⁻¹,41000 M⁻¹ s⁻¹,18 nM,0.0007 s⁻¹,40000 M⁻¹ s⁻¹,2.3 nM,0.0001 s⁻¹,43000 M⁻¹ s⁻¹,10 nM,0.0004 s⁻¹,39000 M⁻¹ s⁻¹,36 nM,1,,,,"wheat amylase trypsin inhibitor CM3 (natural protein, UniProt P17314 26-168, looked up, also called ATI; wheat ATI CM3) SGSCVPGVAFRTNLLPHCRDYVLQQTCGTFTPGSKLPEWMTSASIYSPGKPYLAKLYCCQELAEISQQCRCEALRYFIALPVPSQPVDPRSGNVGESGLIDLPGCPREMQWDFVRLLVAPGQCNLATIHNVRYCPAVEQPLWI"
,,,,,,,,,,,,,1,1400 nM,0.005 s⁻¹,3620 M⁻¹ s⁻¹,RSGNVGESGLI (stretch of wheat ATI CM3; also called straight peptide; StrP; source: synthetic peptide) [RSGNVGESGLI oligopeptide derived from wheat ATI CM3]
